Reference: patent US20160075795A1 (Hoffmann-La Roche, published 2016)

How the values were obtained:
[1] = target: T1, membrane-bound human carcinoembryonic antigen (CEA) (human, UniProt P06731 35-685, GPI anchor at the C-terminus of the mature chain; heavily N-glycosylated. Neither can be carried in the letters.); assay: flow cytometry on MKN45 target cells, antibodies as IgG [top panel]
T1 construct: Target of the flow cytometry experiments; also called CEACAM-5; CD66e
T1 sequence: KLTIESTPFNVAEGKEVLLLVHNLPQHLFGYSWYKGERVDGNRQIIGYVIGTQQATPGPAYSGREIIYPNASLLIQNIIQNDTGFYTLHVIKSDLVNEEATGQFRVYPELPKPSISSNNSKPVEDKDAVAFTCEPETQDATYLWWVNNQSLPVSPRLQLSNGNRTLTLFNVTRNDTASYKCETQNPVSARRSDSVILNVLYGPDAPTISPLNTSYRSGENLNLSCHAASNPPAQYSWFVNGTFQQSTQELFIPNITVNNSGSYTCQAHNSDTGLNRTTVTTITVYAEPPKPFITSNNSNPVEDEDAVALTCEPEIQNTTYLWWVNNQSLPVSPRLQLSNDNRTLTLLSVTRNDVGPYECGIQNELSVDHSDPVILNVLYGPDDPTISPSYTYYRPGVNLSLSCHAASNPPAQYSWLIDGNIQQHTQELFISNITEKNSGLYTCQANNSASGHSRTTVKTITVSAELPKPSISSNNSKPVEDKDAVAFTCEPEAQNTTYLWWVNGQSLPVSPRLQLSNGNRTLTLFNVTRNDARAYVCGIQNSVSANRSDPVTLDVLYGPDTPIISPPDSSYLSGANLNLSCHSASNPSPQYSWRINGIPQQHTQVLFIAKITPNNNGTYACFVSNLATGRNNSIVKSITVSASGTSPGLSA

huNABA-avi-his [2] = target: T2, huNABA-avi-his (human, biotinylated in vivo at the avi tag); assay: SPR (Biacore), immobilized NABA-avi-his; bivalent affinity column (bivalent construct not described)
T2 construct: immobilized on the Biacore chip; also called NABA-avi-his reagent; N-A1-B3-A2
T2 chain: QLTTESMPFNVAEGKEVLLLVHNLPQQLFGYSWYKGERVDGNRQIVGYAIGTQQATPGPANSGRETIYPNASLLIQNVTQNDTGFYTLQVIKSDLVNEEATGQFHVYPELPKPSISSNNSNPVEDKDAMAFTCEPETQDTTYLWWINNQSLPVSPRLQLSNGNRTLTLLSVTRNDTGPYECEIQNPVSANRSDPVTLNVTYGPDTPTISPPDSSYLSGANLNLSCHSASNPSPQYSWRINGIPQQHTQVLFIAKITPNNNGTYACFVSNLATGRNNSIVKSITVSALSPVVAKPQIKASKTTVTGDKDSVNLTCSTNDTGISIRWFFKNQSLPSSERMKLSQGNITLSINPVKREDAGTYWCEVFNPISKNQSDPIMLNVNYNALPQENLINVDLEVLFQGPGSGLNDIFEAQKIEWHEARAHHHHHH

huNABA-avi-his [3] = target: T2, huNABA-avi-his; assay: SPR (Biacore); antigen not given, taken as huNABA-avi-his
huNABA-avi-his [4] = target: T2, huNABA-avi-his; assay: SPR (Biacore), Fab over immobilized NABA-avi-his; monovalent affinity column
Procedure: For the exact analysis of the kinetic parameters, Fabs were purified from bacterial cultures. A 500 ml culture was inoculated and induced with 1 mM IPTG at an OD600 0.9. Bacteria were incubated at 25° C. overnight and harvested by centrifugation. After the incubation of the resuspended pellet for 20 min in 25 ml PPB buffer (30 mM Tris-HCl pH8, 1 mM EDTA, 20% sucrose), bacteria were centrifuged again and the supernatant was harvested. This incubation step was repeated once with 25 ml of a 5 mM MgSO₄ solution. The supernatants of both incubation steps were pooled, filtered and loaded on a IMAC column (His gravitrap, GE Healthcare). Subsequently, the column was washed with 40 volumes. After the elution (500 mM NaCl, 500 mM Imidazole, 20 mM NaH₂PO₄ pH 7.4) the eluate was re-buffered using PD 10 columns (GE Healthcare). The kinetic parameters of the purified Fabs were then studied by SPR-analysis in a dilution row that ranged from 200 nM to 6.25 nM.
Table 11, below, summarizes the affinity constants of the various affinity matured antibody sequences. The parental antibody PR1A3 is listed as well as several light chain and heavy chain combinations of matured and non matured sequences. All values were obtained by Biacore technology by measuring the association (kₒₙ) and dissociation (koff) rate constants of the various soluble antibody constructs in Fab format on a Biacore chip with immobilized NABA-avi-his reagent (SEQ ID NO 158) as the antigen. The affinity constant is labeled with KD.

[5] = target: T1, membrane-bound human carcinoembryonic …; assay: flow cytometry on CEA-positive MKN45 target cells, antibodies as IgG [bottom panel]

B1: CH7A / CL1A rH11 antibody (parent heavy chain with affinity matured light chain) (antibody, human IgG1, V domains shown)
VH: QVQLVQSGSELKKPGASVKVSCKASGYTFTEFGMNWVRQAPGQGLEWMGWINTKTGEATYVEEFKGRFVFSLDTSVSTAYLQISSLKAEDTAVYYCARWDFYDYVEAMDYWGQGTTVTVSS
VL: DIQMTQSPSSLSASVGDRVTITCKASQTVSANVAWYQQKPGKAPKLLIYLASYRYRGVPSRFSGSGSGTDFTLTISSLQPEDFATYYCHQYYTYPLFTFGQGTKLEIKR
notes: also called CLA1 rH11
**Q.** How did the “EC50 (read off the curve)” value [1] turn out when B1 was run?
**A.** The value was roughly 0.6 mg/L.

B2: 1C8 Fab (hc/wt) (Fab, V domains shown)
VH: QVQLVQSGSELKKPGASVKVSCKASGYTFTEFGMNWVRQAPGQGLEWMGWINTKTGEATYVEEFKGRFVFSLDTSVSTAYLQISSLKAEDTAVYYCARWDFYHYVEAMDYWGQGTTVTVSS
VL: DIQMTQSPSSLSASVGDRVTITCKASQNVGTNVAWYQQKPGKAPKLLIYSASYRYSGVPSRFSGSGSGTDFTLTISSLQPEDFATYYCHQYYTYPLFTFGQGTKLEIK
notes: Fab format
**Q.** B2 was tested. Which Kd (huNABA-avi-his [2]) did it give?
**A.** The Kd was 0.000693 µM.

**Q.** What about the koff (huNABA-avi-his [2]) of the same binder?
**A.** Its koff is 0.000324 s⁻¹.

**Q.** And the kon (huNABA-avi-his [2])?
**A.** The kon was 467000 M⁻¹ s⁻¹.

**Q.** What about the Kd (huNABA-avi-his [3]) of the same binder?
**A.** Its Kd is 0.586 µM.

**Q.** And the Kd (huNABA-avi-his [4])?
**A.** The Kd was 0.586 µM.

**Q.** What about the koff (huNABA-avi-his [4]) of the same binder?
**A.** Its koff is 0.0076 s⁻¹.

**Q.** What about the kon (huNABA-avi-his [4]) of the same binder?
**A.** Its kon is 12900 M⁻¹ s⁻¹.

B3: Affinity Matured CDRH-3 construct with CDR-H3 SEQ ID NO:35 (WDFAYYLEAMDY) (Fab, V domains shown)
VH: QVQLVQSGSELKKPGASVKVSCKASGYTFTEFGMNWVRQAPGQGLEWMGWINTKTGEATYVEEFKGRFVFSLDTSVSTAYLQISSLKAEDTAVYYCARWDFAYYLEAMDYWGQGTTITVSS
VL: DIQMTQSPSSLSASVGDRVTITCKASQNVGTNVAWYQQKPGKAPKLLIYSASYRYSGVPSRFSGSGSGTDFTLTISSLQPEDFATYYCHQYYTYPLFTFGQGTKLEIK
**Q.** How did the Kd (huNABA-avi-his [3]) turn out when B3 was run?
**A.** Its Kd is 0.069 µM.

B4: H3 Full (5) 19 Fab (hc/wt) (Fab, V domains shown)
VH: QVQLVQSGSELKKPGASVKVSCKASGYTFTEFGMSWVRQAPGQGLEWMGWINTKTGEATYVEEFKGRFVFSLDTSVSTAYLQISSLKAEDTAVYYCARWDAFEYVKALDYWGQGTTVTVSS
VL: DIQMTQSPSSLSASVGDRVTITCKASQNVGTNVAWYQQKPGKAPKLLIYSASYRYSGVPSRFSGSGSGTDFTLTISSLQPEDFATYYCHQYYTYPLFTFGQGTKLEIK
**Q.** With B4 as the binder, how does the Kd (huNABA-avi-his [2]) read?
**A.** Its Kd is 0.00019 µM.

**Q.** What about the koff (huNABA-avi-his [2]) of the same binder?
**A.** Its koff is 0.000175 s⁻¹.

**Q.** What about the kon (huNABA-avi-his [2]) of the same binder?
**A.** The kon was 902000 M⁻¹ s⁻¹.

B5: Affinity Matured CDRH-3 construct with CDR-H3 SEQ ID NO:33 (WDFAHYFQTMDY) (Fab, V domains shown)
VH: QVQLVQSGSELKKPGASVKVSCKASGYTFTEFGMNWVRQAPGQGLEWMGWINTKTGEATYVEEFKGRFVFSLDTSVSTAYLQISSLKAEDTAVYYCARWDFAHYFQTMDYWGQGTTVTVSS
VL: DIQMTQSPSSLSASVGDRVTITCKASQNVGTNVAWYQQKPGKAPKLLIYSASYRYSGVPSRFSGSGSGTDFTLTISSLQPEDFATYYCHQYYTYPLFTFGQGTKLEIK
**Q.** With B5 as the binder, how does the Kd (huNABA-avi-his [3]) read?
**A.** Its Kd is 0.059 µM.

B6: humanized PR1A3 antibody comprising heavy chain variable region construct CH7A and light chain variable region construct CL1A (antibody, V domains shown)
VH: QVQLVQSGSELKKPGASVKVSCKASGYTFTEFGMNWVRQAPGQGLEWMGWINTKTGEATYVEEFKGRFVFSLDTSVSTAYLQISSLKAEDTAVYYCARWDFYDYVEAMDYWGQGTTVTVSS
VL: DIQMTQSPSSLSASVGDRVTITCKASQNVGTNVAWYQQKPGKAPKLLIYSASYRYSGVPSRFSGSGSGTDFTLTISSLQPEDFATYYCHQYYTYPLFTFGQGTKLEIK
notes: also called CH7A CL1A; CH7A, CL1A
**Q.** B6 was tested. Which “EC50 (read off the curve)” value [5] did it give?
**A.** Its value is roughly 0.7 mg/L.

B7: Affinity Matured CDRH-3 construct with CDR-H3 SEQ ID NO:34 (WDFAYYFQTMDY) (Fab, V domains shown)
VH: QVQLVQSGSELKKPGASVKVSCKASGYTFTEFGMNWVRQAPGQGLEWMGWINTKTGEATYVEEFKGRFVFSLDTSVSTAYLQISSLKAEDTAVYYCARWDFAYYFQTMDYWGQGTTVTVSS
VL: DIQMTQSPSSLSASVGDRVTITCKASQNVGTNVAWYQQKPGKAPKLLIYSASYRYSGVPSRFSGSGSGTDFTLTISSLQPEDFATYYCHQYYTYPLFTFGQGTKLEIK
**Q.** Which Kd (huNABA-avi-his [3]) does the source give for B7 here?
**A.** The Kd was 0.044 µM.
